The values that follow come from patent US7504234B2, “Assays for S-adenosylmethionine (AdoMet)-dependent methyltransferase activity” (The Regents of the University of Michigan, priority 2006, dated 2009).

The target of one data set is T1, hSET8 (Homo sapiens, UniProt Q9NQR1).
T1 construct: A construct of hSET8 encoding residues 191-352 was cloned into the parallel expression vector pHIS2; hexahistidine tag with TEV cleavage site (pHIS2 vector) (N); made in house; host or cells: Escherichia coli BL21 (DE3) Codon Plus RIL
T1 sequence (Q9NQR1 191-352 isoform Q9NQR1-2): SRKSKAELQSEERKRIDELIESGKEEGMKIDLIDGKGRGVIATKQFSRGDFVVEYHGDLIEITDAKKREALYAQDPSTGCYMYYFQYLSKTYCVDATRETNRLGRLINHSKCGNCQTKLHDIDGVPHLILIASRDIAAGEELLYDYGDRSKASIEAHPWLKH
Kind of data set: isothermal titration calorimetry, wild-type and mutant histone H4 peptides with hSET8. The data set is classed as binding. The settings on record: ITC; for histone H4 binding / affinity of hSET8 for mutant histone H4 peptide: 20° C., pH 7.0, saturating AdoHcy; for AdoHcy binding: hSET8 with His-18 mutant H4 peptide. The protocol: The equilibrium dissociation constants of wild type and mutants of hSET8 and histone H4 were determined using a VP-ITC calorimeter (MicroCal, LLC). […] A saturating concentration of AdoHcy (1.0-2.0 mM) was used in all titrations. ITC data were subsequently analyzed using Origin 7.0 (OriginLab Corp.) with blank injections of ligand into buffer subtracted from the experimental titrations prior to data analysis.
Background: ITC needs no label: the signal is the heat of the interaction.

The test system of the next data set is Lys-20 in histone H4. Briefly: MALDI mass spectrometry of methyltransferase reactions (product specificity). The data set is classed as biochemical. As for the experimental part:
Histone methyltransferase assays were performed with wildtype hSET8 and the Tyr-245 and Tyr-334 mutants (5 μM) as described above and were quenched after 15 min or 24 h by the addition of 0.5% trifluoroacetic acid. Aliquots of the samples were cocrystallized with α-cyano-4-hydroxycinnamic acid (1:1), applied on the target, and dried at room temperature. The mass spectra were acquired on the TofSpec 2E MALDI-TOF mass spectrometer (Waters, Inc.) in reflectron mode, with each spectrum representing the average of 50 laser shots. Close external calibration was used based on the following mixture: bradikinin fragment 1-8, m/z=904.41 (for [M+H]+); angiotensin II, m/z=1046.54; [Glul]-fibrinopeptide B, m/z=1570.68; ACTH (clip 18-39), m/z=2465.20.

A further data set deals with their cognate substrates. The following applies: radiometric assay, literature values; cited from earlier work.

As for “H18F: histone H4 peptide (residues 15-24) with His-18 mutated to phenylalanine (Ac-AKRFRKVLRD-NH2; UniProt P62805 16-25, looked up, variant H18F)”, the “histone H4 binding / affinity of hSET8 for mutant histone H4 peptide” value is on record as “modestly affects the affinity” with hSET8 and “does not impact the affinity to nearly the same extent as the H347F substitution” in the data set with hSET8 (listed as His-18 to phenylalanine). Further, the AdoHcy binding result with hSET8 is on record as “severely abrogate AdoHcy binding”.
In the case of “H18A: histone H4 peptide (residues 15-24) with His-18 mutated to alanine (Ac-AKRARKVLRD-NH2; UniProt P62805 16-25, looked up, variant H18A)”, the “histone H4 binding / affinity of hSET8 for mutant histone H4 peptide” value with hSET8 was “completely abolishes binding”; in the data set with hSET8 (listed as His-18 to alanine), “completely abolishes both histone H4 binding and methylation”. Also, in the data set with hSET8, the AdoHcy binding result is listed as “severely abrogate AdoHcy binding”.

B1: wild-type hSET8: construct of hSET8 encoding residues 191-352, catalytic SET domain (protein, UniProt Q9NQR1 191-352, looked up, fragment)
chain: AAIAKQALKKPIKGKQAPRKKAQGKTQQNRKLTDFYPVRRSSRKSKAELQSEERKRIDELIESGKEEGMKIDLIDGKGRGVIATKQFSRGDFVVEYHGDLIEITDAKKREALYAQDPSTGCYMYYFQYLSKTYCVDATRETNRLGRLINHSKCGNCQTKLHD
Take B1: the “methylation state of Lys-20 after reaction with the H4 peptide” value in the data set on Lys-20 in histone H4 (24 h) was “complete conversion to monomethyl-Lys-20”. For the same molecule, the product specificity result in the data set on Lys-20 in histone H4 (MALDI mass spectrometry) is recorded as “bona fide histone H4 Lys-20 monomethylase”.

B2: Drosophila SU(VAR)3-9: H3 Lys-9-specific histone methyltransferase (protein, UniProt P45975 1-635, looked up)
Histone-lysine …: MATAEAQIGVNRNLQKQDLSNLDVSKLTPLSPEVISRQATINIGTIGHVAHGKSTVVKAISGVQTVRFKNELERNITIKLERLSEKKIKNLLTSKQQRQQYEIKQRSMLRHLAELRRHSRFRRLCTKPASSSMPASTSSVDRRTTRRSTSQTSLSPSNSSGYGSVFGCEEHDVDKIPSLNGFAKLKRRRSSCVGAPTPNSKRSKNNMGVIAKRPPKGEYVVERIECVEMDQYQPVFFVKWLGYHDSENTWESLANVADCAEMEKFVERHQQLYETYIAKITTELEKQLEALPLMENITVAEVDAYEPLNLQIDLILLAQYRAAGSRSQREPQKIGERALKSMQIKRAQFVRRKQLADLALFEKRMNHVEKPSPPIRVENNIDLDTIDSNFMYIHDNIIGKDVPKPEAGIVGCKCTEDTEECTASTKCCARFAGELFAYERSTRRLRLRPGSAIYECNSRCSCDSSCSNRLVQHGRQVPLVLFKTANGSGWGVRAATALRKGEFVCEYIGEIITSDEANERGKAYDDNGRTYLFDLDYNTAQDSEYTIDAANYGNISHFINHSCDPNLAVFPCWIEHLNVALPHLVFFTLRPIKAGEELSFDYIRADNEDVPYENLSTAVRVECRCGRDNCRKVLF
For B2, the turnover number in the data set on their cognate substrates was 0.11 s⁻¹.

B3: mouse G9A: histone H3 Lys-9/27 methyltransferase (protein, UniProt Q9Z148 1-1263, looked up)
Histone-lysine …: MRGLPRGRGLMRARGRGRAAPTGGRGRGRGGAHRGRGRPRSLLSLPRAQASWAPQLPAGLTGPPVPCLPSQGEAPAEMGALLLEKEPRGAAERVHSSLGDTPQSEETLPKANPDSLEPAGPSSPASVTVTVGDEGADTPVGAASLIGDEPESLEGDGGRIVLGHATKSFPSSPSKGGACPSRAKMSMTGAGKSPPSVQSLAMRLLSMPGAQGAATAGPEPSPATTAAQEGQPKVHRARKTMSKPSNGQPPIPEKRPPEVQHFRMSDDMHLGKVTSDVAKRRKLNSGSLSEDLGSAGGSGDIILEKGEPRPLEEWETVVGDDFSLYYDAYSVDERVDSDSKSEVEALAEQLSEEEEEEEEEEEEEEEEEEEEEEEEEDEESGNQSDRSGSSGRRKAKKKWRKDSPWVKPSRKRRKREPPRAKEPRGVNGVGSSGPSEYMEVPLGSLELPSEGTLSPNHAGVSNDTSSLETERGFEELPLCSCRMEAPKIDRISERAGHKCMATESVDGELLGCNAAILKRETMRPSSRVALMVLCEAHRARMVKHHCCPGCGYFCTAGTFLECHPDFRVAHRFHKACVSQLNGMVFCPHCGEDASEAQEVTIPRGDGGTPPIGTAAPALPPLAHDAPGRADTSQPSARMRGHGEPRRPPCDPLADTIDSSGPSLTLPNGGCLSAVGLPPGPGREALEKALVIQESERRKKLRFHPRQLYLSVKQGELQKVILMLLDNLDPNFQSDQQSKRTPLHAAAQKGSVEICHVLLQAGANINAVDKQQRTPLMEAVVNNHLEVARYMVQLGGCVYSKEEDGSTCLHHAAKIGNLEMVSLLLSTGQVDVNAQDSGGWTPIIWAAEHKHIDVIRMLLTRGADVTLTDNEENICLHWASFTGSAAIAEVLLNAQCDLHAVNYHGDTPLHIAARESYHDCVLLFLSRGANPELRNKEGDTAWDLTPERSDVWFALQLNRKLRLGVGNRAVRTEKIICRDVARGYENVPIPCVNGVDGEPCPEDYKYISENCETSTMNIDRNITHLQHCTCVDDCSSSNCLCGQLSIRCWYDKDGRLLQEFNKIEPPLIFECNQACSCWRSCKNRVVQSGIKVRLQLYRTAKMGWGVRALQTIPQGTFICEYVGELISDAEADVREDDSYLFDLDNKDGEVYCIDARYYGNISRFINHLCDPNIIPVRVFMLHQDLRFPRIAFFSSRDIRTGEELGFDYGDRFWDIKSKYFTCQCGSEKCKHSAEAIALEQSRLARLDPHPELLPDLSSLPPINT
Consider B3, for which, in the data set with their cognate substrates, the turnover number is 0.024 s⁻¹.

B4: human SET7/9: human histone H3 Lys-4-specific methyltransferase (protein, UniProt Q8WTS6 1-366, looked up)
Histone-lysine …: MDSDDEMVEEAVEGHLDDDGLPHGFCTVTYSSTDRFEGNFVHGEKNGRGKFFFFDGSTLEGYYVDDALQGQGVYTYEDGGVLQGTYVDGELNGPAQEYDTDGRLIFKGQYKDNIRHGVCWIYYPDGGSLVGEVNEDGEMTGEKIAYVYPDERTALYGKFIDGEMIEGKLATLMSTEEGRPHFELMPGNSVYHFDKSTSSCISTNALLPDPYESERVYVAESLISSAGEGLFSKVAVGPNTVMSFYNGVRITHQEVDSRDWALNGNTLSLDEETVIDVPEPYNHVSKYCASLGHKANHSFTPNCIYDMFVHPRFGPIKCIRTLRAVEADEELTVAYGYDHSPPGKSGPEAPEWYQVELKAFQATQQK
In the case of B4, the turnover number in the data set with their cognate substrates is 0.004 s⁻¹.
